According to US20070036810A1, “Cyclic amp response element activator proteins and uses related thereto” (priority 2003, published 2007):

Experiments:
[1] = target: T1, ATF2-GAL4 fusion molecule (Homo sapiens, UniProt P15336); assay: In vivo kinase assay, ATF2-GAL4 fusion in HLR cells; assay type: cell-based; details: 40 hours after transfection
T1 construct: host or cells: HLR cell line (5x GAL4 element-luciferase reporter)
Method: For in vivo kinase assay, activation domains of CREB or ATF2 transcription factors fused with the yeast GAL4 DNA binding domain (1-147 Amino Acids) constructs are used (Stratagene, PathDetect In Vivo Signal Transduction Pathway trans-reporting Systems). The HLR cell line that contains a 5× GAL4 DNA binding element and TATA box driving luciferase reporter is used per manufacturer's protocol (Stratagene). 10^4 HLR cells are split into each well of 96 well tissue culture plates. After 16 hours, cells are transfected with 100 ng of Creb-GAL4 or ATF2-GAL4 fusion constructs, 30 ng of Renilla luciferase control plasmid together with 100 ng of pCMVSPORT6, pCMVSPORT-CREAP1, pFC-PKA or pFC-MEKK (Stratagene) activator plasmids respectively. Transfection is done with Fugene6 reagent (Roche Molecular Biochemicals, Basel, Switzerland) according to the manufacturers manual. Forty hours after transfection, a Dual-Glo Luciferase assay (Promega) is conducted using the manufacturer's protocol.
As CREAP1 strongly activates CRE promoter transcription, we next investigated whether CREAP1 works through the CREB pathway. […]

human IL-8 promoter = assay: pGL2-IL-8p-Luc reporter inducibility in HEK 293 cells; assay type: cell-based; details: expression construct co-transfected into HEK 293 cells, 48 hours post transfection
Method: A luciferase reporter controlled by a 1.5 kB IL-8 promoter containing fragment of human IL-8 promoter was tested for inducibility by known regulators of cytokine-mediated gene expression. pNF-κB-Luc (BD Biosciences) and pGL2-IL-8p-Luc reporters were co-transfected into HEK 293 cells with expression constructs encoding known activators of the NF-κB pathway, truncated MEKK (AA 360-672) (Stratagene) and a full length TRAF6 cDNA made according to conventional methods using a proprietary clone collection. Cells co-transfected with empty pCMV-Sport6 vector were either left untreated or treated with TNFα (50 ng/ml, for 16 hours). Luciferase activity was measured 48 hours post transfection. The pNF-κB-Luc reporter was used as a positive control.

[2] = system: Drosophila CRE (CRE-hsp-Luc reporter); assay: CRE-hsp-Luc reporter assay in Drosophila S2 cells; assay type: cell-based, Drosophila melanogaster; details: 48 hours post-transfection
Text: The amplified product was inserted into the Drosophila P-element transformation vector, pUAST (Brand and Perrimon, Development 118:401-415 (1993)). The final construct pUAS-dCREAP was used for transfection experiments in Drosophila melanogaster Schneider cells (S2). A firefly luciferase reporter was created which contained 4 copies of the drosophila CRE enhancer element (SEQ ID 39) (Eresh, S. et. Al. EMBO J. 16:2014-2022 (1997)) followed by hsp70 minimal promoter.
The S2 cells were transfected in 6 well plates (Costar) by the CaPO4 method (Bunch, T. and Goldstein, L. Nucleic Acids Res. 17:9761-9782 (1989)). A total of 25 ug of DNA was transfected into a 6-well dish containing 4 mls of cells (˜1×10^6 cells/ml). The transfection mix was removed after 18 hr and the luciferase assays were performed 48 hrs later. The UAS-transgenes were activated by co-transfection with the Actin promoter-Gal4 plasmid provided by Dr. Norbert Perrimon. The transfection efficiency was normalized co-transfection with hsp^mln Renilla luciferase driven by minimal heat shock promoter (made according to conventional methods). Luciferase activity was measured using the Dual-luciferase assay kit (Promega). […] Data were calculated as fold induction compared to the reporter gene's activity measured in the cells designated as negative control.

T1 sequence (P15336 with tags, fused parts or gaps limits assumed): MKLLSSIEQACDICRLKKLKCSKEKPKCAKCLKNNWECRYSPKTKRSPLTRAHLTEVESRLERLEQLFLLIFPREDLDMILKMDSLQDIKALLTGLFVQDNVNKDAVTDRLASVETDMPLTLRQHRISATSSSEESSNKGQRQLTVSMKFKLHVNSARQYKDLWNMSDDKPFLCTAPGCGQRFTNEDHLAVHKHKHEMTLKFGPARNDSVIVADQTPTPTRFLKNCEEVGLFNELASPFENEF

stimulation of ATF2 fusion [1] | Molecule | increase of IL-8 promoter-reporter activity (human IL-8 promoter) | Fold Activation ([2]; CRE-hsp-Luc reporter (4 copies of Drosophila CRE)) | Fold Activation ([2]; hsp-Luc reporter without CRE)
more than 100 fold | MEKK: truncated MEKK (AA 360-672) expression construct (Stratagene), known activator of the NF-κB pathway (protein, UniProt Q13233 360-672, looked up, fragment) FVMLRVFQLEPSDPMLWRKTLKNFEVESLFQKYHSRRSSRIKAPSRNTIQKFVSRMSNSHTLSSSSTSTSSSENSIKDEEEQMCPICLLGMLDEESLTVCEDGCRNKLHHHCMSIWAEECRRNREPLICPLCRSKWRSHDFYSHELSSPVDSPSSLRAAQQQTVQQQPLAGSRRNQESNFNLTHYGTQQIPPAYKDLAEPWIQVFGMELVGCLFSRNWNVREMALRRLSHDVSGALLLANGESTGNSGGSSGSSPSGGATSGSSQTSISGDVVEACCSVLSMVCADPVYKVYVAALKTLRAMLVYTPCHSLAE | 16 times |  | 
 | dCREAP: Drosophila CREAP gene product, 797 amino acids, SEQ ID NO 27; expressed from pUAS-dCREAP (protein, drosophila melanogaster) MANPRKFSEKIALQKQKQAEGTAEFERIMKEVYATKRDEPPANQKILDGLVGGQEVSQSSPGAGNGTGGGGSGSGSGASGGGASPDGLGGGGGSPTAYRESRGRSVGVGPMRRPSERKQDRSPYGSSSTQQTLDNGQLNPHLLGPPTAESLWRRSSSDSALHQSALVAGFNSDVNSMGANYQQQQHQQQQQPGQPRSHSPHHGINRTMSPQAQRRKSPLLQPHQLQLQQLQQQQQQMQHQHQLHQQLQMQQLQQHQQQHQQQQQQQNTPYNNAKFTNPVFRPLQDQVNFANTGSLPDLTALQNYGPQQQQQQSQQQPSQQQQQLQQTLSPVMSPHNHRRERDQSPSPFSPAGGGGGAGPGSPYQQQQHSPTGNTQQQQQQHQQPSNSPHLSFTNLATTQAAVTTFNPLPTLGPHNATDYRQPPNPPSPRSSPGLLSSVSATDLHSSAPASPIRQQQQAHQQQQQQQQAQQQQQQFDNSYNSLNTSFHNQFEIFSLGDSNSSPEQQGFANNFVALDFDDLSGGGGGGPSGGGGSNGGGLTNGYNKPEMLDFSELSGSPEASGNNNHMRRGVSNLNNNGLSNGVVGSTHNGSTNLNGAGNNNSSSGGGTAQDPLGITTSPVPSPLGCPSSPLPIPIPMSAQSSPQQQHHHHQQQQQQHHQQQHHQQQQLSLSLHHSPHHSPMHSPHHGNSPLSSSSPVSHNACSNSNVVMNHQQQQQQHHHQQHHHQGSSQSHTPTTANIPSIIFSDYSSNADYTREIFDSLDLDLGQMDVAGLQMLSDQNPIMIADPNIEDSFRRDLN |  | 136.04 | 0.96
